PMC2886031
Read-outs that look alike come from different tables or passages of the source.

T1: PacI (R.PacI) restriction endonuclease (Pseudomonas alcaligenes, UniProt D5MNX7 1-142)
T1 sequence: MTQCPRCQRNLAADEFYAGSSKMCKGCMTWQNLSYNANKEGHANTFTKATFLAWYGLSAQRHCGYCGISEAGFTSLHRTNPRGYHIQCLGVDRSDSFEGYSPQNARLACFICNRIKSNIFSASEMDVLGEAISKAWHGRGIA

B1: 18 bp PacI cognate duplex, cleaved product (dsDNA)
DNA 1: GAGGCTTAAT
DNA 2: TAAGCCGC
DNA 3: GCGGCTTAAT
DNA 4: TAAGCCTC
modifications: 5' phosphate at the cleaved ends
B2: 18 bp PacI cognate duplex (uncleaved) (dsDNA)
DNA 1: GAGGCTTAATTAAGCCGC
DNA 2: GCGGCTTAATTAAGCCTC

Tests used:
[1] = target: T1, PacI (R.PacI) restriction endonuclease; test: X-ray crystallography
[2] = target: T1, PacI (R.PacI) restriction endonuclease; test: X-ray crystallography; remark: listed apart in the source

| Binder | binding result [1] | binding result [2] |
| --- | --- | --- |
| B1 | binds | – |
| B2 | – | binds |
